# Test results published in publication PMC5559510.
# Columns and labels:
# [1] = target: TMR labeled SNAP-25a Δ9 (residues 1–197, S187C) (human) (UniProt P60880); experiment: FRET or BRET; two-membrane system, 37°C; Munc18-1/full-length syntaxin-1 on t-liposomes, BDPY-full-length synaptobrevin-2 (S61C) on v-liposomes, TMR-SNAP-25a Δ9 (S187C), 0.5 μM Munc13-1 C1-C2B-MUN, with or without 0.5 μM Syt1 C2AB, 0.2 mM EDTA; two-phase exponential decay
# [2] = target: TMR-labeled SNAP-25a (S187C) (human) (UniProt P60880); experiment: FRET or BRET; one-membrane system, 37°C; Munc18-1/full-length syntaxin-1 on t-liposomes, TMR-SNAP-25a (S187C), BDPY-synaptobrevin-2 (29–93, S61C) in solution, 0.5 μM Munc13-1 C1-C2B-MUN, with or without 0.5 μM Syt1 C2AB, 0.2 mM EDTA; two-phase exponential decay
# [3] = target: TMR-labeled SNAP-25a (S187C) (human) (UniProt P60880); experiment: FRET or BRET; membrane-free, 37°C; 5 μM co-expressed Munc18-1/syntaxin-1 (1–261), 5 μM TMR-SNAP-25a (S187C), 1 μM BDPY-synaptobrevin-2 (29–93, S61C), 30 μM Munc13-1 MUN domain, with or without 2 μM Syt1 C2AB; fitted to a one-phase exponential decay
kfast of ternary SNARE complex formation (no Syt1) [1] [s⁻¹],kfast of ternary SNARE complex formation (with Syt1 C2AB) [1] [s⁻¹],τfast of ternary SNARE complex formation (no Syt1) [1] [s],τfast of ternary SNARE complex formation (with Syt1 C2AB) [1] [s],kfast of ternary SNARE complex formation (no Syt1) [2] [s⁻¹],kfast of ternary SNARE complex formation (with Syt1 C2AB) [2] [s⁻¹],τfast of ternary SNARE complex formation (no Syt1) [2] [s],τfast of ternary SNARE complex formation (with Syt1 C2AB) [2] [s],kfast of ternary SNARE complex formation (no Syt1) [3] [s⁻¹],kfast of ternary SNARE complex formation (with Syt1 C2AB) [3] [s⁻¹],τfast of ternary SNARE complex formation (no Syt1) [3] [s],τfast of ternary SNARE complex formation (with Syt1 C2AB) [3] [s],Substance
0.0123,0.0249,81.4,40.1,,,,,,,,,"BDPY-labeled full-length synaptobrevin-2 (residues 1–116, S61C), on v-liposomes (from UniProt P63045 1-116) (natural protein)"
,,,,0.00135,0.0152,740,65.8,0.0013,0.00354,770,282,"BDPY-labeled synaptobrevin-2 cytoplasmic domain (residues 29–93, S61C) (from UniProt P63045 29-93) (domain or fragment)"
